In assay [1] the target is anti-CD19 CAR (clone FMC63), second-generation, C-terminal meGFP (human) (UniProt P01732). Briefly: cell-based or functional assay.
Assay [2] shares this target. Briefly: flow cytometry staining titration, dose-response fit. A general note: A flow cytometer gives signals particle by particle.
The target is the same in assay [3]. Briefly: flow cytometry specificity staining, matched CAR cells.
For assay [4] the target is unchanged. Description: flow cytometry staining titration, CAR-transduced Jurkat cells.
Assay [5] shares this target. Briefly: flow cytometry staining titration, αCD19-CAR-transduced Jurkat cells.
The target is the same in assay [6]. Briefly: flow cytometry staining titration, anti-CD19 CAR-transduced Jurkat cells.
Assay [7] shares this target. Briefly: magnetic selection with APC-labeled multimer and anti-APC magnetic particles, 'Low Clone'.
The target is the same in assay [8]. Briefly: magnetic selection with APC-labeled multimer and anti-APC magnetic particles, 'Mid Clone'.
The target is the same in assay [9]. Briefly: flow cytometry spike-in assay, 'Low Clone' and 'Mid Clone' anti-CD19 CAR-meGFP cells among mCherry non-CAR cells.
The target is the same in assay [10]. Description: flow cytometry spike-in assay, 'Mid Clone' at 10%.

For “CD19 antigen-dodecamer (from UniProt P22629 37-163)”, in assay [1], the CAR-T cells as percent of total cell population (49% without multimer) stood at 70%, the CD69+CD25+ cells in CD4+ CAR-T cell sub-population (17% without multimer) worked out at 28%, the CD69+CD25+ cells in CD8+ CAR-T cell sub-population (5% without multimer) turned out to be 38% and the PD-1+ CAR-T cells in CD4+ CAR-T cell sub-population (25% without multimer) is 25%. The same substance yielded a PD-1+ CAR-T cells in CD8+ CAR-T cell sub-population (2% without multimer) in [1] of 6%. The substance further registered a fold staining efficiency (1/EC50) against anti FMC63 antibody in assay [2] of 40 fold. The substance also gave a percent of CAR-expressing cells detected in [3] of more than 90%. Also, the percent of target cells detected at the maximum concentration in assay [4] is more than 92%. Besides, in [5], the percent of CD19 CAR-expressing cells detected at saturated concentrations turned out to be 90%. This substance registered an efficiency of detection against antigen-monomer in assay [6] of 25 % higher. The substance also returned a percent of CAR+ cells retained in the column in [7] of 35%. This substance came in with a percent of CAR+ cells retained in the column in assay [8] of 55%. In assay [9], this substance registered a sensitivity of more than 90%.
As to “Protein L (Thermo Fisher Scientific, 29997)”, the percent of cells detected in [10] amounted to 90%.
As for “CD19 antigen-streptavidin tetramer (from UniProt P22629 37-163)”, in assay [1], the CAR-T cells as percent of total cell population (49% without multimer) worked out at 61%, the CD69+CD25+ cells in CD4+ CAR-T cell sub-population (17% without multimer) came to 26%, the CD69+CD25+ cells in CD8+ CAR-T cell sub-population (5% without multimer) was determined as 28% and the PD-1+ CAR-T cells in CD4+ CAR-T cell sub-population (25% without multimer) was 26%. The substance further registered a PD-1+ CAR-T cells in CD8+ CAR-T cell sub-population (2% without multimer) in assay [1] of 6%. In assay [2], the fold staining efficiency (1/EC50) against anti FMC63 antibody amounted to 8 fold. The percent of CAR-expressing cells detected in [3] was more than 90%. The substance further gave a percent of target cells detected at the maximum concentration in assay [4] of more than 92%. Besides, the percent of CD19 CAR-expressing cells detected at saturated concentrations in assay [5] turned out to be 93%. This substance also had an efficiency of detection against antigen-monomer in assay [6] of 25 % higher. In [7], this substance returned a percent of CAR+ cells retained in the column of 35%. The substance further had a percent of CAR+ cells retained in the column in assay [8] of 55%. The sensitivity in assay [9] is more than 90%.

For the origin of these results see US20240361328A1.
